Measured values taken from patent US20080081903A1, “METHOD FOR SCREENING TRANSCRIPTIONAL COREGULATORY PROTEINS OF TRANSCRIPTION FACTORS, AND ANDROGEN RECEPTOR TRANSCRIPTIONAL COREGULATORY PROTEINS AS TARGETS FOR ANDROGEN RECEPTOR-DEPENDENT DISEASES” (NEW YORK UNIVERSITY, priority 2001, published 2008).

T1: androgen receptor N-terminus (AR18-500) (Rattus norvegicus, UniProt P15207)
T1 construct: receptor residues 18 through 500 (using the rat androgen receptor number scheme); expressed in transfected cells; host or cells: Saccharomyces cerevisiae EGY188
T1 sequence (P15207 18-500): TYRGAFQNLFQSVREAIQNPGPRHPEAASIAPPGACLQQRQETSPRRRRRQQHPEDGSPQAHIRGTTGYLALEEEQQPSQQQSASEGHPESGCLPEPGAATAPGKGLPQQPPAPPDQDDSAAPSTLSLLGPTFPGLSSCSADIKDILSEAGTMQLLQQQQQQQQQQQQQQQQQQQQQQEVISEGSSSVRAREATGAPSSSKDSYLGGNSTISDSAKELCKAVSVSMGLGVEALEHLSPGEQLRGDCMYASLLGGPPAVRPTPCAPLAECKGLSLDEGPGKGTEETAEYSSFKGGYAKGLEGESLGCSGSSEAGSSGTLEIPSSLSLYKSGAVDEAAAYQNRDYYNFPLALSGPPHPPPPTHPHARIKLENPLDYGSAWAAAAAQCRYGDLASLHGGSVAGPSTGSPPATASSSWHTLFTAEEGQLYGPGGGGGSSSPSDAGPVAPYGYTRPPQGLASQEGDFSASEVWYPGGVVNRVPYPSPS

T2: androgen receptor (AR) N-terminus (18-500) (Rattus norvegicus, UniProt P15207)
T2 construct: receptor residues 18 through 500 (using the rat androgen receptor number scheme); expressed in transfected cells; host or cells: Saccharomyces cerevisiae EGY188
T2 sequence (P15207 18-500): T1 sequence (P15207 18-500)

T3: androgen receptor ligand-binding domain (579-901) (Rattus norvegicus, UniProt P15207)
T3 construct: expressed in transfected cells; host or cells: yeast (modified two-hybrid assay)
T3 sequence (P15207 579-901): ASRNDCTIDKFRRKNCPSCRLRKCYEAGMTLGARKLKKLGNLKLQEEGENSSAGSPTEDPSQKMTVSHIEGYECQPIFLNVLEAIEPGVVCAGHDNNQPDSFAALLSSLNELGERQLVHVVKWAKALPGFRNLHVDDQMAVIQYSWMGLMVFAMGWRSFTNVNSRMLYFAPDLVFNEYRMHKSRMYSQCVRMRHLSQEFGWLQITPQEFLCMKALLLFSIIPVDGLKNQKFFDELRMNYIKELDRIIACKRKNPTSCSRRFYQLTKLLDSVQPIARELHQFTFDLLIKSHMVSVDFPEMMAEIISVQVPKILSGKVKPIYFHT

B1: ART-37: Androgen Receptor Trapped protein, SEQ ID NO:6, unknown function, represented in EST database (protein)
chain: EFGTRARFTRGKSALLERALARPRTEVSLSAFALLSPSWYSTARAVFSVAELQSRLAALGRQVGARVLDALVAREKGARRETKVLGALLFVKGAVWKALFGKEADKLEQANDDARTFYIIEREPLINTYISVPKENSTLNCASFTAGIVEAVLTHSGFPAKVTAHWHKGTTLMIKFEEAVIARDRLEGR
modifications: Human

Key:
[1] = molecular target: T1, androgen receptor N-terminus (AR18-500); assay: Modified yeast two-hybrid, quantitative liquid beta-galactosidase assay; assay type: binding; details: LexA-ART fusions vs AR18-500; twelve hour incubation in galactose-containing media
Procedure: (§1) The modified yeast two hybrid assay is described in Hittelman et al., 1999. EGY188 was transformed by the lithium acetate method with (i) pJG4-5:AR18-500, (ii) pEG202:LNCaP cell cDNA library and (iii) pJK103, a β-galactosidase reporter gene with a single LexA operator. Potential interacting proteins were selected by plating the cDNA library expressing transformants onto galactose plates lacking leucine and containing X-gal.
Yeast were grown in selective liquid media containing 2% glucose for approximately 12 hours, pelleted, washed once with sterile H2O, normalized according to cell number and resuspended to an optical density (OD600) of 0.15 in 2% galactose/1% raffinose. β-galactosidase assays were performed 12 hours later as described previously (Garabedian et al., 1992).
Out of approximately one million library transformants, eight clones were isolated that interact with the androgen receptor N-terminus. There protein factors were termed ARTs, for Androgen Receptor Trapped, by the present inventors. The eight ART clones were sequenced and were subjected to a database search using the BLAST program. A quantitative liquid beta-galactosidase assay was used to measure the relative strength of interaction between the androgen receptor N-terminus and the ARTs using the yeast two-hybrid system. The levels of expression of the ARTs in yeast were similar, as determined by immunoblotting using an antibody to the LexA DNA-binding domain that is common to all of the ARTs.
ARTs expressed as fusion proteins with the LexA DNA binding domain were analyzed for their ability to interact with AR18-500. The relative strength of interaction was determined by a quantitative liquid beta-galactosidase assay after a twelve hour incubation in galactose-containing media at 30EC. The LexA vector alone gives 1 unit of activity.

[2] = molecular target: T2, androgen receptor (AR) N-terminus (18-500); assay: Modified yeast two-hybrid, qualitative plate beta-galactosidase assay; assay type: binding; details: AR N-terminus, AR LBD, Sp1A, Sp1B, CREB, TAFII130, GR AF1, SRC-1
Source text: as §1
To analyze the specificity of ART interaction, the capacity of the strongest androgen receptor N-terminus-interacting factors to associate with a panel of transcriptional regulatory proteins in the modified yeast two-hybrid assay was examined. ART-5, ART-27, and ART-37 were tested for interaction with Sp1A (Sp183-262), Sp1B (Sp1263-524) the cyclic AMP response element binding protein (CREB3-296), TBP-associated factor 130 (TAFII130270-700), the glucocorticoid receptor AF1 (GR107-237), and the steroid receptor coactivator-1 (SRC-1374-800).
The strength of interaction was determined by a qualitative plate beta-galactosidase assay after a 24 hour incubation on galactose X-gal plates at 301 C.
ART-27 derivatives containing amino acids 1-45, 1-67, 1-127, 46-157, 68-157, 127-157, 1-157, and 1-45/127-157 were expressed as fusion proteins with LexA. These derivatives were tested for their ability to interact with the androgen receptor N-terminus (AR18-500). The strength of interaction was determined by a qualitative plate beta-galactosidase assay after a 24 hour incubation on galactose X-gal plates at 301 C.

[3] = molecular target: T3, androgen receptor ligand-binding domain (579-901); assay: Modified yeast two-hybrid specificity panel; details: absence or presence of hormone

Row | Molecule | relative strength of interaction with androgen receptor N-terminus [1] | specificity of interaction among panel of transcriptional regulatory factors [2] | interaction with androgen receptor ligand binding domain [3]
1 | ART-2: Androgen Receptor Trapped protein, SEQ ID NO:10, present in the EST database (EFGTRIHCPHNPRPTRRSTDHSISPSIDPHLQISHQQPTNHHPTMTNQTNLKTNDNHTQH; Human) | Weak | – | –
2 | ART-6: Androgen Receptor Trapped protein, SEQ ID NO:8, an EST (EFGTRLKPYVSYLAPESEETPLTAAQLFSKPLAPCHRKGLQG; Human) | Intermediate strength | – | –
3 | ART-9: corresponds to ZNF160, a zinc finger containing protein of unknown function | Weak | – | –
4 | B1 | strongest | relatively promiscuous | No interaction
